{"source": "paper PMC4225490", "about": "“Crystal structure of the γ-hydroxymuconic semialdehyde dehydrogenase from Pseudomonas sp. strainWBC-3, a key enzyme involved in para-Nitrophenol degradation” (BMC Structural Biology, 2013)", "key": {"[1]": {"target": "γ-hydroxymuconic semialdehyde dehydrogenase PnpE from Pseudomonas sp. strain WBC-3 (Pseudomonas sp. strain WBC-3)", "assay": "crystal structure; apo-PnpE, space group P21, 2.7 Å; eight monomers in the asymmetric unit; crystals grown from 20% PEG3350, 0.2 M KNO3 at 20°C"}, "[2]": {"target": "T1, PnpE, γ-hydroxymuconic semialdehyde dehydrogenase (Pseudomonas sp. WBC-3, UniProt C1I208)", "T1 construct": "recombinant His-tagged in E. coli BL21(DE3), pET29b NdeI/XhoI; Ni-NTA, Source-Q, Superdex-200; homodimer (four dimers per asymmetric unit)", "T1 sequence (C1I208 1-487)": "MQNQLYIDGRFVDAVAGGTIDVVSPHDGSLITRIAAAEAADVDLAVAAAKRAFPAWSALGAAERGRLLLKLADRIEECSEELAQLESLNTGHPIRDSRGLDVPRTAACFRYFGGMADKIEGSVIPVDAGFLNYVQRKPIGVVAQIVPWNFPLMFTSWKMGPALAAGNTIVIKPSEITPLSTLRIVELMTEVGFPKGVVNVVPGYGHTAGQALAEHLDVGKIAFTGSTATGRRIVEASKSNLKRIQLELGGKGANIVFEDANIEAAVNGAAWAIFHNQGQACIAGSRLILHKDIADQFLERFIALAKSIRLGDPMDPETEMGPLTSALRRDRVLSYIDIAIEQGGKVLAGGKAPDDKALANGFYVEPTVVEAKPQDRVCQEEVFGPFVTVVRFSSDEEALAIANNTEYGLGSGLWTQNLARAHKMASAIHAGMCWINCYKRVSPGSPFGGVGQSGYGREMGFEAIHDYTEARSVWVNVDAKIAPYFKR", "assay": "X-ray crystal structure, […] Å", "assay_type": "binding", "conditions": "co-crystallised with 1 mM NAD, 0.1 M Bicine pH 8.5, 20% PEG10000, 20 °C; cofactor site"}}, "data": [{"molecule": "γ-hydroxymuconic semialdehyde dehydrogenase PnpE from Pseudomonas sp. strain WBC-3 (enzyme)", "values": [{"measurement": "stoichiometry N", "setting": "[1]", "result": 2}]}, {"molecule": "NC(=O)c1ccc[n+]([C@@H]2O[C@H](COP(=O)(O)OP(=O)(O)OC[C@H]3O[C@@H](n4cnc5c(N)ncnc54)[C@H](O)[C@@H]3O)[C@@H](O)[C@H]2O)c1", "note": "[NAD]", "values": [{"measurement": "X-ray crystal structure, 3.1 Å", "setting": "[2]", "result": "In the PnpE-NAD complex structure, NAD is situated in a cleft of PnpE."}]}]}
